Results published in US20230096030A1 (UCB, published 2023).

Key:
[1] = molecular target: T1, full length cell-expressed CD9 (human, UniProt P21926 2-228); assay: selection on cells expressing CD9; method not described
T1 construct: also called human CD9
T1 sequence: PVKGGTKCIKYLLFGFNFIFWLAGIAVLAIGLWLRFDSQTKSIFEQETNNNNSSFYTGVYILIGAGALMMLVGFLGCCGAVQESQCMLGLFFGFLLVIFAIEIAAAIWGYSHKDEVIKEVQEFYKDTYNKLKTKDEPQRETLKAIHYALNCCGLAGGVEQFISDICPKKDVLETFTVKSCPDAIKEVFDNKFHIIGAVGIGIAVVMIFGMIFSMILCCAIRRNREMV

[2] = molecular target: T2, recombinant human CD9 long extracellular loop 2-human Fc fusion protein (10015-CD, R&D Systems) (human, UniProt P21926 112-195); assay: BLI (Octet RED384), CD9 loop 2-Fc on AHC biosensors, Fab-Y 10 µg/mL
T2 construct: Bought reagent; the order here follows the printed name; also called CD9-loop2; long extracellular loop 2 peptide; not shown: human Fc
T2 sequence: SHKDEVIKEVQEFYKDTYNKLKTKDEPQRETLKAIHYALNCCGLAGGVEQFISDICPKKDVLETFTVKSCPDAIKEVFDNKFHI
Description: CD9 contains two extracellular loops: a short extracellular loop (loop 1: 34-55 in SEQ ID NO:2) and a long extracellular loop (loop 2: 112-195 in SEQ ID NO:2). We used biolayer interferometry to assess binding of our panel of CD9 Fab-Y antibodies (selected for binding to full length cell-expressed CD9) to the long extracellular loop 2 peptide using the Octet® RED384 System (FortéBio) with Anti-hlgG Fc Capture (AHC) Biosensors (FortéBio) at room temperature. Firstly, an array of 8 sensors was dipped in kinetics buffer (PBS 0.1%, BSA 0.02%, Tween 20) for 120 seconds to provide a baseline signal. Sensors were then moved to wells containing 200 μl of recombinant human CD9 long extracellular loop 2-human Fc fusion protein (10015-CD, R&D Systems®) at 2 μg/mL in kinetics buffer to immobilize the protein to the biosensor (100 seconds), followed by a second baseline step (180 seconds) in kinetics buffer to equilibrate the biosensors now coated with the CD9 long extracellular loop 2-human Fc fusion protein. No detachment of the peptide was observed during this step. Sensors were then dipped in wells containing one of the anti-CD9 Fab (10 μg/mL) to evaluate association of each antibody to CD9-loop2 (120 seconds), followed by dissociation in kinetics buffer (600 seconds). Anti-CD137 Fab-Y (11175) was used as negative control during the antibody association step. […]

binding result [1]: binds
binding result [2]: binds
B1: anti-CD9 Fab-Y 7272 (Fab, V domains shown)
VH: QSLEESGGRLVTPGTPLTLTCTVSGFSLSSYAMGWVRQAPGKGLEWIGAIGSITATGYARWAKGRFSISKTSTTVDLKMTSPTTEDTATYFCAREIYVGSAYAFDIWGPGTLVTVSS
VL: AYDMTQTPASVEVAVGDTVTIKCQASQSISNYLAWYQQKPGQPPKLLIYLASTLASGVPSRFKGSGSGTEFTLTISDLECADAATYYCQQGYIDNVNKGFGGGTEVVVK
notes: Tested as Fab-Y: Fab with the GCN4 peptide (clone 7P14P) attached by a peptide linker to CH1; also called VR7272
